Biological target: PL6S* (PvuII-L6-I-SceI* fusion enzyme: wt PvuII fused via linker L6 to I-SceIΔC9,D44N,D145A) (UniProt P03882)
Experiment: AUC

stoichiometry N: 2
Substance: PL6S* (PvuII-L6-I-SceI* fusion enzyme: wt PvuII fused via linker L6 to I-SceIΔC9,D44N,D145A) (from UniProt P03882 1-226)

Source: article PMC3258161
